One block for each binder: values may come before it.
Tests used:
Assay in all cases: pull-down
His-Erk1 = His-Erk1 (human, UniProt P27361 1-379)
GST-Erk1 = GST-Erk1 (human, UniProt P27361 1-379)
GST-Erk2 = GST-Erk2 (human, UniProt P28482 1-360)
GST-Erk2, sequence (P28482 whole entry): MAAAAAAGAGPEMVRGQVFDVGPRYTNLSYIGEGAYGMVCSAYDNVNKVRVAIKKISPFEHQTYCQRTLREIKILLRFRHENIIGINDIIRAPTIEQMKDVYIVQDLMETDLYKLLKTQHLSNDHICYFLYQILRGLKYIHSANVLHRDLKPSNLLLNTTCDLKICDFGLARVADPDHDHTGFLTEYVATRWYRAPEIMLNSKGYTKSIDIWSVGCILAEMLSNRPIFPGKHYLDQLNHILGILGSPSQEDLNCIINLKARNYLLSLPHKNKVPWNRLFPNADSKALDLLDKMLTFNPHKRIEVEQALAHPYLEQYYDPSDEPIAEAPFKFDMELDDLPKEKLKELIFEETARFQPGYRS

His-Erk1, sequence (P27361 whole entry): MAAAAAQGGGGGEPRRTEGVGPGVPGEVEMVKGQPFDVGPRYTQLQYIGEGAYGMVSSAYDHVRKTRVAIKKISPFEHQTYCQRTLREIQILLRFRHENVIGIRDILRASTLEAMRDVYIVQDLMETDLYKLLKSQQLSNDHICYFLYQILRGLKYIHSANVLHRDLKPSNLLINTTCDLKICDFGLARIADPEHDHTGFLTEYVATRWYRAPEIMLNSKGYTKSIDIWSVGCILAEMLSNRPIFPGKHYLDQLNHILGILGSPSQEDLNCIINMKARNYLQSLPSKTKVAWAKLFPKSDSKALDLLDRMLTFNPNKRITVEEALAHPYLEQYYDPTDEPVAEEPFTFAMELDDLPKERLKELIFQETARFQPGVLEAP
GST-Erk1, sequence (P27361 whole entry): as above

binding result (His-Erk1): binds
B1: GST-Arl4D (natural protein, human, UniProt P49703 1-201, looked up)
chain: MGNHLTEMAPTASSFLPHFQALHVVVIGLDSAGKTSLLYRLKFKEFVQSVPTKGFNTEKIRVPLGGSRGITFQVWDVGGQEKLRPLWRSYTRRTDGLVFVVDAAEAERLEEAKVELHRISRASDNQGVPVLVLANKQDQPGALSAAEVEKRLAVRELAAATLTHVQGCSAVDGLGLQQGLERLYEMILKRKKAARGGKKRR

binding result (GST-Erk1): binds
binding result (GST-Erk2): binds
B2: His-Arl4D (natural protein, human, UniProt P49703 1-201, looked up)
chain: B1 chain

— paper doi:10.1101/2024.12.02.626348 (bioRxiv, 2024)
